Data from the supplement of paper PMC9732359.
± gives the uncertainty stated by the source.

Test: protein stability index of a GFP-peptide fusion (yeast GPS) (PSI 1-4); higher = more stable; sorted into four equal gates, so the index is relative within each strain
Summary of the method: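 Tiled 17-residue yeast protein peptides were fused downstream of GFP in a plasmid that also expresses Cherry, and the pooled library was carried in yeast. Mid-log cultures in leucine-free medium were sorted into four equal gates by GFP/Cherry fluorescence ratio, and plasmids from each gate were PCR-amplified and Illumina-sequenced, with reads assigned to strains by barcodes. The protein stability index for each peptide was each gate's read frequency times its gate number, summed.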

| Sequence | protein stability index (doa10∆) | protein stability index (pdr5∆) | protein stability index (san1∆) | protein stability index (ubr1∆) |
| --- | --- | --- | --- | --- |
| FLQSVDITGIRDVSDDV [GRR1] | 1.74 ± 0.041 | 2.12 ± 0.045 | 1.89 ± 0.055 | 1.69 ± 0.036 |
| FLRTQFLKLYVLVKWTR [RGR1] | 1.46 ± 0.084 | 1.95 ± 0.065 | 1.63 ± 0.11 | 1.56 ± 0.06 |
| FLTNYNVRMDTMANILY [RPB2] | 3.58 ± 0.17 | 3.02 ± 0.098 | 3.48 ± 0.1 | 3.48 ± 0.14 |
| FLVEYEGQENNYNSTSR [SIR4] | 2.85 ± 0.093 | 2.76 ± 0.08 | 2.29 ± 0.1 | 3.24 ± 0.052 |
| FMDEIDSIGSTRVEGSG [RPT6] | 2.57 ± 0.076 | 2.56 ± 0.12 | 2.84 ± 0.069 | 2.46 ± 0.073 |
| FMEIVLEYNVALNDVYL [YML031W/NDC1] | 2.47 ± 0.09 | 2.3 ± 0.084 | 2.22 ± 0.11 | 1.66 ± 0.064 |
| FMLRKQDPKTLVALLSR [SSN2] | 1.6 ± 0.055 | 1.84 ± 0.041 | 1.85 ± 0.079 | 2.09 ± 0.043 |
| FMNDAAADVSAVDAKQL [YML103C/NUP188] | 2.52 ± 0.095 | 2.54 ± 0.099 | 3.06 ± 0.091 | 2.21 ± 0.081 |
| FNFGGKSDTVTSASQPF [YOR098C/NUP1] | 2.21 ± 0.056 | 2.03 ± 0.056 | 2.07 ± 0.071 | 1.93 ± 0.049 |
| FNGIENQSAYEWNGKSF [ISW2] | 3.09 ± 0.12 | 3.25 ± 0.2 | 3.31 ± 0.076 | 3.22 ± 0.12 |
| FNLNLPPSSFGRSHTRN [REC8] | 3.35 ± 0.11 | 2.51 ± 0.1 | 3.04 ± 0.058 | 3.27 ± 0.19 |
| FNQEGDYNFKYGIPLEF [PRP8] | 3.14 ± 0.084 | 3.11 ± 0.077 | 1.92 ± 0.076 | 3.37 ± 0.077 |
| FNRDNKVSPAAAAKKAL [RPS26B] | 2.4 ± 0.12 | 2.5 ± 0.21 | 2.61 ± 0.11 | 2.79 ± 0.12 |
| FNSVKSFDEWFNTPFAN [SNF2] | 2.9 ± 0.091 | 3.14 ± 0.082 | 3.43 ± 0.085 | 3.26 ± 0.11 |
| FNTPFANTGGQDKIELS [SNF2] | 1.89 ± 0.18 |  | 1.55 ± 0.2 | 1.87 ± 0.2 |
| FNVHEVPRAALEERFDP [YMR129W/POM152] | 3.13 ± 0.067 | 3.15 ± 0.078 | 3.16 ± 0.069 | 3.03 ± 0.079 |
| FPGDSFPVDPTTPVKLG [RRP40] | 2.45 ± 0.058 | 2.58 ± 0.053 | 2.65 ± 0.045 | 2.62 ± 0.048 |
| FPGKPVDVQAPTDDKTL [YOR098C/NUP1] | 2.78 ± 0.068 | 3.02 ± 0.1 | 2.93 ± 0.089 | 2.75 ± 0.071 |
| FPNGFKNFENGPKKNVF [RPC34] | 3.26 ± 0.083 | 3.27 ± 0.082 | 3.21 ± 0.062 | 3.44 ± 0.045 |
| FPPGVIGIDEGSDEAYV [RPC40] | 3.59 ± 0.091 | 3.41 ± 0.085 | 3.29 ± 0.077 | 3.51 ± 0.056 |
| FPQTAMLRRHAAPPSTN [DIS3] | 1.89 ± 0.1 | 1.93 ± 0.12 |  | 1.74 ± 0.07 |
| FPRNGKAPEAEQVLSAA [RPL13A] | 3.14 ± 0.098 | 2.76 ± 0.093 | 3.13 ± 0.1 | 2.77 ± 0.05 |
| FQAQQAQQAQQAQQAQQ [SNF2] | 2.86 ± 0.052 | 3 ± 0.046 | 2.85 ± 0.035 | 2.73 ± 0.035 |
| FQIDNDNIRYATALQTC [SMC2] | 1.8 ± 0.052 | 1.78 ± 0.047 | 1.45 ± 0.073 | 1.74 ± 0.052 |
| FQKAQGSYAGHRKHIAV [YCG1] |  | 2.11 ± 0.28 | 2.29 ± 0.22 | 2.46 ± 0.095 |
| FQNLELETEQLSSELDS [SMC2] | 2.08 ± 0.12 | 2.58 ± 0.11 | 1.55 ± 0.14 | 2.69 ± 0.13 |
